Measured values: article PMC9008408

Columns and labels:
[1] = CHX chase, western blot of remaining protein, HEK293; conditions: glycan lost; control: wild type TIM-4, no TM
[2] = anti-Flag IP, ubiquitin blot, MG132, A549-LV-TIM-4-Flag; conditions: glycan lost; control: no TM
[3] = anti-HA IP, ubiquitin blot, MG132, A549; conditions: glycan lost; control: wild type TIM-4
[4] = confocal immunofluorescence, mCherry-Sec61b ER marker, A549; conditions: glycan lost; control: wild type TIM-4

B1: TIM-4: TM (protein)
parent chain: MSKEPLILWLMIEFWWLYLTPVTSETVVTEVLGHRVTLPCLYSSWSHNSNSMCWGKDQCPYSGCKEALIRTDGMRVTSRKSAKYRLQGTIPRGDVSLTILNPSESDSGVYCCRIEVPGWFNDVKINVRLNLQRASTTTHRTATTTTRRTTTTSPTTTRQMTTTPAALPTTVVTTPDLTTGTPLQMTTIAVFTTANTCLSLTPSTLPEEATGLLTPEPSKEGPILTAESETVLPSDSWSSVESTSADTVLLTSKESKVWDLPSTSHVSMWKTSDSVSSPQPGASDTAVPEQNKTTKTGQMDGIPMSMKNEMPISQLLMIIAPSLGFVLFALFVAFLLRGKLMETYCSQKHTRLDYIGDSKNVLNDVQHGREDEDGLFTL
degradation_or_half_life [1]: decreases
other: ubiquitination [2]: increases

B2: TIM-4: N291Q (protein)
parent chain: B1 parent chain
other: ubiquitination [3]: increases
localisation_or_trafficking [4]: changes, co-localized with the ER-tracker compared with wild type TIM-4
